In patent publication US20130130922, “ANALYSIS OF METHYLATION SITES” (Centre for Addiction and Mental Health, published 2013):

Target: M.SssI Q142A/N370A (UniProt P15840 SEQ:1-386, Q142A,N370A)
Experiment: Ado-6-amine 80 uM, no Mg, 37 C; modified deoxycytidine detected by HPLC/ESI-MS
Conditions: tags: His6

Chain of M.SssI Q142A/N370A (P15840 whole entry Q142A/N370A): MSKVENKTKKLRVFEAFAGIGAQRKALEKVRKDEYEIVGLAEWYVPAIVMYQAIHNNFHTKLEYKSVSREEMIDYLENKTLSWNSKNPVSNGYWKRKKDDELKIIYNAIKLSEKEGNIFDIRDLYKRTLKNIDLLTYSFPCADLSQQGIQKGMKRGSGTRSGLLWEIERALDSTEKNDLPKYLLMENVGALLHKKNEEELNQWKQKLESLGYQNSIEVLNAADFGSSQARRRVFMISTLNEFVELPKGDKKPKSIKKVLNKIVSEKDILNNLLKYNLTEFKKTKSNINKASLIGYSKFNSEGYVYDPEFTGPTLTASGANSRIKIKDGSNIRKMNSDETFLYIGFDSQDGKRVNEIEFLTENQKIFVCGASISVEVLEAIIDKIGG

B1: 24-mer duplex oligonucleotide (dsDNA)
DNA 1: GCATTACGCGCCAGGTCGTTTCGT
DNA 2: TACGAAACGACCTGGCGCGTAATG
B1: binds.
